# Results reported in patent US7166427.
# T1: PepTag peptide C1
# T1 chain: PLSRTLSVAAK
# Target: T1, PepTag peptide C1
protein,measurement,value
recombinant DESC1 polypeptide expressed as a fusion protein with an amino-terminal His tag (pcDNA4/HisMax) (protein) MYRPDVVRARKRVCWEPWVIGLVIFISLIVLAVCIGLTVHYVRYNQKKTYNYYSTLSFTTDKLYAEFGREASNNFTEMSQRLESMVKNAFYKSPLREEFVKSQVIKFSQQKHGVLAHMLLICRFHSTEDPETVDKIVQLVLHEKLQDAVGPPKVDPHSVKIKKINKTETDSYLNHCCGTRRSKTLGQSLRIVGGTEVEEGEWPWQASLQWDGSHRCGATLINATWLVSAAHCFTTYKNPARWTASFGVTIKPSKMKRGLRRIIVHEKYKHPSHDYDISLAELSSPVPYTNAVHRVCLPDASYEFQPGDVMFVTGFGALKNDGYSQNHLRQAQVTLIDATTCNEPQAYNDAITPRMLCAGSLEGKTDACQGDSGGPLVSSDARDIWYLAGIVSWGDECAKPNKPGVYTRVTALRDWITSKTGI,"PepTag Protease Assay: proteolysis of dye-linked peptide, agarose gel electrophoresis",demonstrate proteolytic cleavage of C1 peptide by fractions containing DESC1 polypeptide eluted from the ProBond resin
